Test results published in patent publication US20030040042A1, “Recombinant fibroblast growth factors” (published 2003).
Where a chain is given by its changes, count along the chain named.

T1: FGF receptor on bovine adrenal cortex capillary endothelial (ACE) cells (bovine, UniProt P12820)
T1 sequence: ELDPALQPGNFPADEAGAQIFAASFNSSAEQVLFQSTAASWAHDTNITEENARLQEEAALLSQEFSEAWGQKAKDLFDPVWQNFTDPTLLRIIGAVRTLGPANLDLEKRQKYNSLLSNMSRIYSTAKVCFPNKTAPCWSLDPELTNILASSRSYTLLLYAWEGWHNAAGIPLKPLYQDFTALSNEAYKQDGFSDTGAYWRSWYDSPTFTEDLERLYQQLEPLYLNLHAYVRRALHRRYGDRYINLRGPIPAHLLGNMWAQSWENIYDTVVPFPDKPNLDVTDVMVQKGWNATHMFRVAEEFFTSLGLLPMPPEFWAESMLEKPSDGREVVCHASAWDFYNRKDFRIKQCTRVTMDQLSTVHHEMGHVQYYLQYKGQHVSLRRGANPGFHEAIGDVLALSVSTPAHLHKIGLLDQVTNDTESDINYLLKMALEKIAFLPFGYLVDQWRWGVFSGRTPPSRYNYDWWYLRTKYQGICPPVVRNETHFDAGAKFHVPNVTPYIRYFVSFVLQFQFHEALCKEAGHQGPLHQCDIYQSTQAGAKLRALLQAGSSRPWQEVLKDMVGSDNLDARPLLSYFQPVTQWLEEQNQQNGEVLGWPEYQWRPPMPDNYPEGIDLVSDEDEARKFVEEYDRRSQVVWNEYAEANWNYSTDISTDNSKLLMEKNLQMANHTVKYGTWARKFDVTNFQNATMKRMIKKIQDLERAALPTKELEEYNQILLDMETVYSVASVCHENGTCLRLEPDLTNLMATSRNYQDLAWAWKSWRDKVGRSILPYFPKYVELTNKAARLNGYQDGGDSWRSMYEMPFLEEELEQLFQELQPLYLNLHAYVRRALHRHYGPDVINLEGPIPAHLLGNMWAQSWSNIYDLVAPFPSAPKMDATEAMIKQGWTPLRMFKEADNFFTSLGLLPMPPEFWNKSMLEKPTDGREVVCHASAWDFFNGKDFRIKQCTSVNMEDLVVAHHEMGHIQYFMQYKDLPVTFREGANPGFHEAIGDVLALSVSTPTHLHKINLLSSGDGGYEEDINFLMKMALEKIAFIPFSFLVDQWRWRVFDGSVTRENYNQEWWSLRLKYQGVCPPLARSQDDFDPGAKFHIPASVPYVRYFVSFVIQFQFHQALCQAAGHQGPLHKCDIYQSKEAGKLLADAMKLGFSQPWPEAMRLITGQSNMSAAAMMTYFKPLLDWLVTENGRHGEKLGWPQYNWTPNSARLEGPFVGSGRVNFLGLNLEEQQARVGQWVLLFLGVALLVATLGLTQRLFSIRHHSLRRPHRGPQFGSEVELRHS

B1: bFGF-C34/78/96/101S (ligand)
chain: MAAGSITTLPALPEDGGSGAFPPGHFKDPKRLYSKNGGFFLRIHPDGRVDGVREKSDPHIKLQLQAEERGVVSIKGVSANRYLAMKEDGRLLASKSVTDESFFFERLESNNYNTYRSRKYTSWYVALKRTGQYKLGSKTGPGQKAILFLPMSAKS
B2: bFGF-C78/96/101S (ligand)
chain: B1 chain with S34C

Key:
[1] = target: FGF receptor on Balb/c 3T3 cells; assay: competition with [125I]-bFGF on Balb/c 3T3 cells, no heparin
[2] = target: FGF receptor on Balb/c 3T3 cells
[3] = target: FGF receptor on Balb/c 3T3 cells; assay: competition with [125I]-bFGF on Balb/c 3T3 cells, 1 ug/ml heparin
[4] = target: FGF receptor on bovine adrenal cortex capillary endothelial (ACE) cells (bovine) (UniProt P12820)
[5] = target: T1, FGF receptor on bovine adrenal cortex …; assay: cell-based or functional assay

Molecule	FGF-Rc Comp. (ED50 analog / ED50 wild type FGF) [1]	3T3 Mito., 1 ug/ml heparin (ED50 wild type / ED50 analog x 100%) (% of wild type) [2]	3T3 Mito., no heparin (ED50 wild type / ED50 analog x 100%) (% of wild type) [2]	FGF-Rc Comp. (ED50 analog / ED50 wild type FGF) [3]	ACE Mito., 1 ug/ml heparin (ED50 wild type / ED50 analog x 100%) (% of wild type) [4]	ACE Mito., no heparin (ED50 wild type / ED50 analog x 100%) (% of wild type) [4]	ACE Mito., 1 ug/ml heparin (ED50 wild type / ED50 analog x 100%) [5]	ACE Mito., no heparin (ED50 wild type / ED50 analog x 100%) [5]
bFGF-R116T (from UniProt P09038-2) (ligand)	0.2	300	50	–	–	–	–	–
bFGF-R53L (from UniProt P09038-2) (ligand)	0.22	–	–	0.25	–	–	–	–
bFGF-K27M (from UniProt P09038-2) (ligand)	0.3	–	–	0.2	–	–	–	–
bFGF-D99A (from UniProt P09038-2) (ligand)	0.04	280	150	0.03	–	–	–	–
bFGF-R106L (from UniProt P09038-2) (ligand)	0.3	200	20	0.13	–	–	–	–
bFGF-R48A (from UniProt P09038) (ligand)	0.32	–	–	0.3	84.2	8.9	–	–
bFGF-R129T (from UniProt P09038-2) (ligand)	1.3	190	87	0.5	–	–	–	–
bFGF-K119S (from UniProt P09038-2) (ligand)	0.35	250	48	0.25	–	–	–	–
bFGF-D28K (from UniProt P09038-2) (ligand)	1	–	–	1.3	–	–	–	–
bFGF-D50A (from UniProt P09038-2) (ligand)	2.5	–	–	2.5	–	–	–	–
KR128, 129ST (from UniProt P09038-2) (ligand)	2	–	185	0.8	–	–	–	–
K95T (from UniProt P09038-2) (ligand)	–	170	100	–	–	–	–	–
bFGF-K55I (from UniProt P09038-2) (ligand)	2	8	1	1.6	–	–	–	–
bFGF-R90T (from UniProt P09038-2) (ligand)	0.6	216	77	0.5	–	–	–	–
bFGF-C96S (from UniProt P09038-2) (ligand)	0.3	–	–	0.8	–	–	–	–
bFGF-K128S (from UniProt P09038-2) (ligand)	0.3	–	210	0.25	–	–	–	–
bFGF-C78/96S (from UniProt P09038-2) (ligand)	0.2	160	118	0.1	–	–	–	–
bFGF-E100S (from UniProt P09038-2) (ligand)	1.1	–	–	0.5	–	–	–	–
bFGF-K55M (from UniProt P09038-2) (ligand)	0.4	–	–	0.4	–	–	–	–

Molecule	FGF-Rc Comp. (ED50 analog / ED50 wild type FGF) [1]	3T3 Mito., 1 ug/ml heparin (ED50 wild type / ED50 analog x 100%) (% of wild type) [2]	3T3 Mito., no heparin (ED50 wild type / ED50 analog x 100%) (% of wild type) [2]	FGF-Rc Comp. (ED50 analog / ED50 wild type FGF) [3]	ACE Mito., 1 ug/ml heparin (ED50 wild type / ED50 analog x 100%) (% of wild type) [4]	ACE Mito., no heparin (ED50 wild type / ED50 analog x 100%) (% of wild type) [4]	ACE Mito., 1 ug/ml heparin (ED50 wild type / ED50 analog x 100%) [5]	ACE Mito., no heparin (ED50 wild type / ED50 analog x 100%) [5]
bFGF-D46A (from UniProt P09038-2) (ligand)	0.5	–	–	–	–	–	–	–
bFGF-H59N (from UniProt P09038-2) (ligand)	0.4	–	315	0.4	–	–	–	–
bFGF-R48L (from UniProt P09038) (ligand)	0.16	–	–	2	–	1.7	–	–
human acidic FGF (from UniProt P05230) (ligand)	0.5	25	5	–	–	–	–	–
R106T (from UniProt P09038-2) (ligand)	–	250	210	–	–	–	–	–
bFGF-N113S (from UniProt P09038-2) (ligand)	1	–	160	1	–	–	–	–
bFGF-E108A (from UniProt P09038-2) (ligand)	2.5	–	180	2.5	–	–	–	–
bFGF-K128E (from UniProt P09038-2) (ligand)	–	140	200	–	–	–	–	–
bFGF-E105S (from UniProt P09038-2) (ligand)	50	100	12.6	40	–	–	–	–
bFGF-R31S (from UniProt P09038-2) (ligand)	1	100	100	0.8	–	–	–	–
bFGF-R118L (from UniProt P09038) (ligand)	0.5	–	–	0.4	–	1.8	–	–
bFGF-C78S (from UniProt P09038-2) (ligand)	0.3	–	–	0.25	–	–	–	–
bFGF-V52K (from UniProt P09038-2) (ligand)	0.5	–	–	0.4	–	–	–	–
bFGF-K35S (from UniProt P09038-2) (ligand)	0.1	–	–	0.05	–	–	–	–
bFGF-Y112A (from UniProt P09038-2) (ligand)	100	0.2	0.2	100	–	–	–	–
bFGF-E100A (from UniProt P09038-2) (ligand)	0.8	–	–	1	–	–	–	–
B1	1	–	–	0.5	–	–	119 % of wild type	7 % of wild type
B2	–	–	–	–	–	–	125 % of wild type	23 % of wild type
